Assay results: patent US20130323248A1 (published 2013)

B1: anti-DLL-4 antibody G6 (antibody, V domains shown)
VH: EVQLVESGGSLVQPGGSLRLSCAASGFTFSNGWMTWLRQAPGKGLEWVATIKPDGSDTAYVESVKGRFTISRDNAKNLLYLQMDSLRGDDTAVYFCARDLAYNAFDIWGQGTMVTVSS
VL: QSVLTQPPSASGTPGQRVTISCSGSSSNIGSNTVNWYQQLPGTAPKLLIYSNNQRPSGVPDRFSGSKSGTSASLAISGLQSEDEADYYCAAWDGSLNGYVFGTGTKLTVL
B2: anti-DLL-4 antibody C10 (antibody, V domains shown)
VH: QVQLVESGAEVKKPGASVKVSCKASGYTFTSYYMHWVRQAPQGLEWMGIINPSGGSTSYAQKFQGRVTMTRDTSTNTVYMELSSLRSEDTAVYYCARDVWGGYFDYWGQGTLVTVSS
VL: QSVLTQPASVSGSPGQSITISCTGTSSDVGGYNYVSWYQQHPGKAPKLMIYDVTNRPSGVSNRFSGSKSGNTASLTISGLQAEDEADYYCSSYTSSSTVIFGGGTKLTVL
B3: anti-DLL-4 antibody C3 (antibody, V domains shown)
VH: QVQLVQSGSELKKPGASVKVSCKASGYTFTSYYMHWVRQVPGQGLEWMGIINPSGGSTSYAQKFQGRVTMTRDTSTSTVYMELSSLRSEDTAVYYCATDYYDSSGYVDFDYWGQGTLVTVSS
VL: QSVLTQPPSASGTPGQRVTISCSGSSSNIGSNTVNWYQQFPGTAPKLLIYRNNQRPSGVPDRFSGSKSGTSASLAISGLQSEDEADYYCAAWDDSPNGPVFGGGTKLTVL

biological target: T1, recombinant human DLL4 (rhDLL4) (human, UniProt Q9NR61 27-524); assay: Biacore SPR

B1 and B2 are within 1.5-fold of each other in Kd: 1.15 nM for the first, 1.18 nM for the second.

Binder B3 has a Kd of 0.884 nM.

biological target: T2, human DLL-4 expressed on the surface of CHO-K1 cells (CHO-DLL-4 cells) (human, UniProt Q9NR61 27-685); assay: flow cytometry blocking of soluble Notch-1 binding

Going from B1 to B2, the IC50 rises from 0.286 nM to 0.676 nM (2.4-fold). The first is the more potent here.

Binder B3 has an IC50 of 0.364 nM.

biological target: T1, recombinant human DLL4 (rhDLL4); assay: Biacore SPR; remark: another data set of the same source

B1 and B2 are within 1.5-fold of each other in Ka: 8.72e+08 M⁻¹ for the first, 8.49e+08 M⁻¹ for the second.

B3 was tested, and the Ka was 1.13e+09 M⁻¹.

biological target: T2, human DLL-4 expressed on the surface of …; assay: flow cytometry

B1 and B2 are within 1.5-fold of each other in EC50: 0.305 nM for the first, 0.216 nM for the second.

With B3 the EC50 was 0.107 nM.
